Measured values: PMC4777857
Values belong to the substance of their own block, whether it stands above or below them.

Legend:
[1] = biological target: C-terminal globular region of the collagen VI α1 chain; assay: SAXS; C-terminal regions in solution (α1, 4.3 mg/ml; α2, 4 mg/ml; α4, 3.5 mg/ml; α6, 3.5 mg/ml) after Superdex200 in 10 mM phosphate buffer, 400 mM NaCl, pH 7.4; EMBL-P12 beamline, PETRAIII; molecular weight from the volume of correlation
[2] = biological target: C-terminal globular region of the collagen VI α2 chain; assay: as above
[3] = biological target: C-terminal globular region of the collagen VI α4 chain; assay: as above
[4] = biological target: monomeric heterotrimeric collagen VI molecule composed of one α1 chain, one α2 chain and one α3 chain (mouse (endogenous in tissue)) (UniProt Q04857); assay: immunoelectron microscopy after negative staining; native collagen VI tetramers and microfibrils extracted from E14.5 mouse lungs by collagenase digestion; double labelling for 30 min at 37 °C with colloidal gold-labeled antibodies specific for the N-terminal regions of the long α chains
[5] = biological target: monomeric heterotrimeric collagen VI molecule composed of one α1 chain, one α2 chain and one α4 chain (mouse (endogenous in tissue)) (UniProt Q04857); assay: as above
[6] = biological target: monomeric heterotrimeric collagen VI molecule composed of one α1 chain, one α2 chain and one α5 chain (mouse (endogenous in E14.5 lung)) (UniProt Q04857); assay: as above
[7] = biological target: monomeric heterotrimeric collagen VI molecule composed of one α1 chain, one α2 chain and one α6 chain (mouse (endogenous in tissue)) (UniProt Q04857); assay: as above

Substance: C-terminal globular region of the collagen VI α2 chain (domain or fragment)
stoichiometry N [2]: 2

Substance: C-terminal globular region of the collagen VI α4 chain (domain or fragment)
stoichiometry N [3]: 2

Substance: monomeric heterotrimeric collagen VI molecule composed of one α1 chain, one α2 chain and one α4 chain, Q04857 20-1025; Q02788 26-1034; A2AX52 23-2309
stoichiometry N [5]: 4

Next, values leading:

stoichiometry N [1]: 2
Substance: C-terminal globular region of the collagen VI α1 chain (domain or fragment)

stoichiometry N [4]: 4
Substance: monomeric heterotrimeric collagen VI molecule composed of one α1 chain, one α2 chain and one α3 chain (from UniProt Q04857 20-1025; Q02788 26-1034) (complex)

stoichiometry N [6]: 4
Substance: monomeric heterotrimeric collagen VI molecule composed of one α1 chain, one α2 chain and one α5 chain, Q04857 20-1025; Q02788 26-1034; A6H584 19-2640

stoichiometry N [7]: 4
Substance: monomeric heterotrimeric collagen VI molecule composed of one α1 chain, one α2 chain and one α6 chain, Q04857 20-1025; Q02788 26-1034; Q8C6K9 19-2265
